According to the RNAGym collection of RNA variant scans (doi:10.7554/elife.90254):

B1: OR4K15 (parent)
chain: GUUAACGGUCAUAGGCCAUGGAAACUAGGAGCACCAUUUCGCUGCCAGUGAAGAAAUGAACAAAGAAAAUCUGGGCCAGGCAGGCAUCAAAAGAAAUAGUCUUGCGCUCAACCAGAAAGUCUGUAAUCAUUUUAAGGGUA

Variants of: B1
Assay: self-cleavage, relative activity (ratio to wild type); higher = more cleavage; in vitro, sequencing; the parent is a self-cleaving ribozyme

Going from GUUAACGGUCAUAGGCCAUGGAAACUAGGAGCACCACUUCGCUGCCGGUGAAGAAAUGAACAAAGAAAAUCUGGGCCAGGCAGGCAUCAAAAGAAAUAGUCUUGCGCUCAACCAGAAAGUCUGUAAUCAUUUUAAGGGUA to GUUAACGGUCAUAGGCCAUGGAAACUAGGAGCACCACUUCGCUGCCAGUGAAGAAAUGAACAAAGAAAAUCUGGGCCAGGCUGGCAUCAAAAGAAAUAGUCUUGCGCUCAACCAGAAAGUCUGUAAUCAUUUUAAGGGUA, the self-cleavage falls from 1.19 to 0.13.

Going from GUUAACGGUCAUAGGCCAUGGAAACUAGGAGCACCAAUUCGCUGCCAGUGAAGAAAUGAACAAAGAAAAUCUGGGCCAGGCAGGCAUCAAAAGAAAUAGUCUUGCGCUCAACCAGAAGGUCUGUAAUCAUUUUAAGGGUA to GUUAACGGUCAUAGGCCAUGGAAACUAGGAGCACCACUUCGCUGCCAGUGAAGAAAUGAACAAAGAAAAUCUGGGCCAGGCAGGCAUCAAAAGAGAUAGUCUUGCGCUCAACCAGAAAGUCUGUAAUCAUUUUAAGGGUA, the self-cleavage rises from 1.4 to 2.37.

Compared with GUUAACGGUCAUAGGCCAUGGAAACUAGGAGCACCAAUUCGCUGCCAGUGAAGAAAUGAACAAAGAAAAUCUGGGCCAGGCAGGCAUCAAAAGAAAUAGUCCUGCGCUCAACCAGAAAGUCUGUAAUCAUUUUAAGGGUA, GUUAACGGUCAUAGGCCAUGGAAACUAGGAGCACCAAUUCGCUGCCAGUGAAGAAAUGAACAAAGAAAAUCUGGGCCAGGCAGGCAUCAAAAGAAAUAGUCUUGCGCUCAACCAGAAAGUCUGUAACCAUUUUAAGGGUA is lower in self-cleavage: 1.85 for the first, 0.71 for the second.

Going from GUUAACGGUCAUAGGCCAUGGAAACUAGGAGCACCACUUCGCUGCCAGUGAAGAAAUGAACAAAGAAAAUCUGGGCCAGGCAGGCAUCGAAAGAAAUAGUCUUGCGCUCAACCAGAAAGUCUGUAAUCAUUUUAAGGGUA to GUUAACGGUCAUAGGCCAUGGAAACUAGGAGCACCACUUCGCUGCCAGUGAAGAAAUGAACAAAGAAAAUCUGGGCCAGGCAGGCAUCCAAAGAAAUAGUCUUGCGCUCAACCAGAAAGUCUGUAAUCAUUUUAAGGGUA, the self-cleavage falls from 1.52 to 1.31.

Going from GUUAACGGUCAUAGGCCAUGGAAACUAGGAGCACCACUUCGCUGCCAGUGAAGAAAUGAACAAAGAAAAUCUGGGCCAGGCAGGCAUCUAAAGAAAUAGUCUUGCGCUCAACCAGAAAGUCUGUAAUCAUUUUAAGGGUA to GUUAACGGUCAUAGGCCAUGGAAACUAGGAGCACCAAUUCGCUGCCAGUGAAGAAAUGAACAAAGAAAAUCUGGGCCAGGCAGGCAUCAAAAGAAAUAGUCUUGCGCUCAACCAGAAAGUCUGUAAUCACUUUAAGGGUA, the self-cleavage falls from 2.23 to 0.61.

Compared with GUUAACGGUCAUAGGCCAUGGAAACUAGGAGCACCACUUCGCUGCCAGUGAAGAAAUGAACAAAGAAAAUCUGGGCCAGGCAGGCAUCAAAAGAAAUAGUCUUGCGCUCAACCAGGAAGUCUGUAAUCAUUUUAAGGGUA, GUUAACGGUCAUAGGCCAUGGAAACUAGGAGCACCACUUCGCUGCCAGUGAAGAAAUGAACAAAGAAAAUCUGGGCCAGGCAGGCAUCAAAGGAAAUAGUCUUGCGCUCAACCAGAAAGUCUGUAAUCAUUUUAAGGGUA is lower in self-cleavage: 0.98 for the first, 0.77 for the second.

Going from GUUAACGGUCAUAGGCCAUGGAAACUAGGAGCACCACUUCGCUGCCAGUGAAGAAAUGAACAAAGAGAAUCUGGGCCAGGCAGGCAUCAAAAGAAAUAGUCUUGCGCUCAACCAGAAAGUCUGUAAUCAUUUUAAGGGUA to GUUAACGGUCAUAGGCCAUGGAAACUAGGAGCACCACUUCGCUGCCAGUGAAGAAAUGAACAAAGAAAAUCUGGGCCAGGCAGGCAUCAAAAGAAAUAGUCUUGCGCUCAACCGGAAAGUCUGUAAUCAUUUUAAGGGUA, the self-cleavage falls from 0.68 to 0.34.

First: GUUAACGGUCAUAGGCCAUGGAAACUAGGAGCACCACUUCGCUGCCAGUGAAGAAAUGAACAAAGAAAUUCUGGGCCAGGCAGGCAUCAAAAGAAAUAGUCUUGCGCUCAACCAGAAAGUCUGUAAUCAUUUUAAGGGUA
Second: GUUAACGGUCAUAGGCCAUGGAAACUAGGAGCACCAAUUCGCUGCCAGUGAAGAAAUGAACAAAGAAAAUCUGGGCCAGGCAGGCAUCAAAAGAAAUAGUCUUGCGCUCAACCAGAAAGUCUGUAGUCAUUUUAAGGGUA
The self-cleavage of the first is higher: 1.6 for the first, 0.44 for the second.

First: GUUAACGGUCAUAGGCCAUGGAAACUAGGAGCACCACUUCGCUGCCAGUGAAGAAAUGAACUAAGAAAAUCUGGGCCAGGCAGGCAUCAAAAGAAAUAGUCUUGCGCUCAACCAGAAAGUCUGUAAUCAUUUUAAGGGUA
Second: GUUAACGGUCAUAGGCCAUGGAAACUAGGAGCACCACUUCGCUGCCAGUGAAGAAAUGAACAAAGAAAAUCUGGGCCAGGCAGGCAUCAAAAGAACUAGUCUUGCGCUCAACCAGAAAGUCUGUAAUCAUUUUAAGGGUA
The self-cleavage of the first is higher: 1.49 for the first, 0.89 for the second.

Going from GUUAACGGUCAUAGGCCAUGGAAACUAGGAGCACCAAUUCGCUGCCAGUGAAGAAAUGAACAAAGAAAACCUGGGCCAGGCAGGCAUCAAAAGAAAUAGUCUUGCGCUCAACCAGAAAGUCUGUAAUCAUUUUAAGGGUA to GUUAACGGUCAUAGGCCAUGGAAACUAGGAGCACCAAUUCGCUGCCAGUGAAGAAAUGAACAAAGAAAAUCUGGGCCAGGCAGGCAUCAAAAGAAAUAGCCUUGCGCUCAACCAGAAAGUCUGUAAUCAUUUUAAGGGUA, the self-cleavage rises from 1.21 to 2.33.

Compared with GUUAACGGUCAUAGGCCAUGGAAACUAGGAGCACCACUUCGCUGCCAGUGAAGAAAUGAACAAAGAAAAUCUGGGCCAGGCAGGCAUCAUAAGAAAUAGUCUUGCGCUCAACCAGAAAGUCUGUAAUCAUUUUAAGGGUA, GUUAACGGUCAUAGGCCAUGGAAACUAGGAGCACCACUUCGCUGCCAGUGAAGAAAUGAACAAAGAAAAUCUGGGCCAGGCAGGCAUCAGAAGAAAUAGUCUUGCGCUCAACCAGAAAGUCUGUAAUCAUUUUAAGGGUA is higher in self-cleavage: 0.91 for the first, 1.12 for the second.

First: GUUAACGGUCAUAGGCCAUGGAAACUAGGAGCACCACUUCGCUGCCAGUGAAGAAAUGAUCAAAGAAAAUCUGGGCCAGGCAGGCAUCAAAAGAAAUAGUCUUGCGCUCAACCAGAAAGUCUGUAAUCAUUUUAAGGGUA
Second: GUUAACGGUCAUAGGCCAUGGAAACUAGGAGCACCACUUCGCUGCCAGUGAAGAAAUGACCAAAGAAAAUCUGGGCCAGGCAGGCAUCAAAAGAAAUAGUCUUGCGCUCAACCAGAAAGUCUGUAAUCAUUUUAAGGGUA
The self-cleavage of the first is higher: 1.69 for the first, 1.44 for the second.

Compared with GUUAACGGUCAUAGGCCAUGGAAACUAGGAGCACCAAUUCGCUGCCAGUGAAGAAAUGAACAAAGAAAAUCUGGGCCAGGCAGGCAUCAAAAGAAAUAGUCUUGCGCUCAACCAGAAAGUCUGUAAUCAUUUUAAGGGCA, GUUAACGGUCAUAGGCCAUGGAAACUAGGAGCACCACUUCGCUGCCAGUGAAGAAAUGAACAAAGAAAAUCUGGGCCAGGCAGGCAUCAAAAGAAAUAGUCUUGCGCUCAACCAGAAAGUCUGUAAUCAUUUUGAGGGUA is higher in self-cleavage: 1.19 for the first, 1.32 for the second.

Compared with GUUAACGGUCAUAGGCCAUGGAAACUAGGAGCACCACUUCGCUGCCAGUGAAGAAAUGAACAAAGAAAAUCUGGGCCAGGCAGGCAUCAAAAGAAAUAGUCUUGCGCUCAACCAGAAAGUCUGUAAUCAUUUUAAGGGUU, GUUAACGGUCAUAGGCCAUGGAAACUAGGAGCACCACUUCGCUGCCAGUGAAGAAAUGAACAAAGAAGAUCUGGGCCAGGCAGGCAUCAAAAGAAAUAGUCUUGCGCUCAACCAGAAAGUCUGUAAUCAUUUUAAGGGUA is lower in self-cleavage: 1.87 for the first, 1.25 for the second.

Compared with GUUAACGGUCAUAGGCCAUGGAAACUAGGAGCACCACUUCGCUGCCAGUGAAGAAAUGAACAAAGAAAAUCUGGGCCAGGCAGGCAUCAAAAGAAAUAGUCUUGCGCUCAACCAGAAAGUCUGUAAUCAUUUUAUGGGUA, GUUAACGGUCAUAGGCCAUGGAAACUAGGAGCACCACUUCGCUGCCAGUGAAGAAAUGAACAAAGUAAAUCUGGGCCAGGCAGGCAUCAAAAGAAAUAGUCUUGCGCUCAACCAGAAAGUCUGUAAUCAUUUUAAGGGUA is lower in self-cleavage: 2.17 for the first, 1.7 for the second.

First: GUUAACGGUCAUAGGCCAUGGAAACUAGGAGCACCACUUCGCUGCCAGUGAAGAAAUGAACAAAGAAAAUCUGGGCCAGGCAGGCAUCAAAAGGAAUAGUCUUGCGCUCAACCAGAAAGUCUGUAAUCAUUUUAAGGGUA
Second: GUUAACGGUCAUAGGCCAUGGAAACUAGGAGCACCACUUCGCUGCCAGUGAAGAAGUGAACAAAGAAAAUCUGGGCCAGGCAGGCAUCAAAAGAAAUAGUCUUGCGCUCAACCAGAAAGUCUGUAAUCAUUUUAAGGGUA
The self-cleavage of the first is higher: 1.76 for the first, 0.73 for the second.

Going from GUUAACGGUCAUAGGCCAUGGAAACUAGGAGCACCACUUCGCUGCCAGUGAAGAAAUGAACAAAGAAAAUCUGGGCCAGGCAGGCAUCAAAAGAAAUAGUCUUGCGCUCAACCAGAGAGUCUGUAAUCAUUUUAAGGGUA to GUUAACGGUCAUAGGCCAUGGAAACUAGGAGCACCACUUCGCUGCCAGUGAAGAAAUGAACAAAGAAAAUCUGGGCCAGGCAGGCAUCAAAAGAAAUAGUCUUGCGCUCAACCAGAUAGUCUGUAAUCAUUUUAAGGGUA, the self-cleavage falls from 1.98 to 1.11.

Compared with GUUAACGGUCAUAGGCCAUGGAAACUAGGAGCACCACUUCGCUGCCAGUGAAGAAAUGGACAAAGAAAAUCUGGGCCAGGCAGGCAUCAAAAGAAAUAGUCUUGCGCUCAACCAGAAAGUCUGUAAUCAUUUUAAGGGUA, GUUAACGGUCAUAGGCCAUGGAAACUAGGAGCACCAAUUCGCUGCCAGUGAAGAAAUGAACAAAGAAAAUCUGGGCCAGGCAGGCAUCAAAAGAAAUAGUCUUGCGCUCAACCAGAAAGUCUGUAAUCAUUUUAAGAGUA is higher in self-cleavage: 1.72 for the first, 2.24 for the second.

Compared with GUUAACGGUCAUAGGCCAUGGAAACUAGGAGCACCACUUCGCUGCCAGUGAAGAAAUGAACAAAGAAAAUCUGGGCCAGGCAGGCAUCAAAAGAAAUAGUCUUGCGCUCGACCAGAAAGUCUGUAAUCAUUUUAAGGGUA, GUUAACGGUCAUAGGCCAUGGAAACUAGGAGCACCACUUCGCUGCCAGUGAAGAAAUGAACAAAGAAAAUCUGGGCCAGGCAGGCAUCAAAAGAAAUUGUCUUGCGCUCAACCAGAAAGUCUGUAAUCAUUUUAAGGGUA is higher in self-cleavage: 0.13 for the first, 1.84 for the second.

Going from GUUAACGGUCAUAGGCCAUGGAAACUAGGAGCACCACUUCGCUGCCAGUGAAGAAAUGAACAAAGAAAAUCUGGGCCAGGCAGGCAUCAAAAGAAAUGGUCUUGCGCUCAACCAGAAAGUCUGUAAUCAUUUUAAGGGUA to GUUAACGGUCAUAGGCCAUGGAAACUAGGAGCACCACUUCGCUGCCAGUGAAGAUAUGAACAAAGAAAAUCUGGGCCAGGCAGGCAUCAAAAGAAAUAGUCUUGCGCUCAACCAGAAAGUCUGUAAUCAUUUUAAGGGUA, the self-cleavage rises from 0.8 to 1.57.

Variant GUUAACGGUCAUAGGCCAUGGAAACUAGGAGCACCACUUCGCUGCCAGUGAAGAAAUGAACAAAGAAAAUCUGGGCCAGGCAGGCAUCAAAAGAAAUAGUCUUGCGCUCAACCAGAAAGUCUGUAGUCAUUUUAAGGGUA has a self-cleavage of 1.31.
